Test [1] addresses His6-MadB (class I lantibiotic dehydratase MadB) (Clostridium sp. Maddingley). Briefly: ITC; 200 uM leader variant in the syringe titrated into 20 uM MadB dimer in the cell, 20 injections of 2 uL, 25 °C, 50 mM HEPES, 500 mM NaCl, pH 7.5.
The target in test [2] is MadB, class I lantibiotic dehydratase of maddinglicin (His6-MadB) (Clostridium sp. Maddingley). Briefly: ITC; leader variant (200 µM, syringe, 20 injections of 2 µL) titrated into MadB (20 µM of the dimer, cell); 25 °C; 50 mM HEPES, 500 mM NaCl, pH 7.5; N counts leader peptide per MadB dimer; at least triplicate, error S.D. (In general: ITC needs no label: the signal is the heat of the interaction.)

As a reminder, the Kd is the constant that tells how readily two partners part at equilibrium. High values mean a looser complex, low ones a tighter complex. Broadly, the stoichiometry N is a count of units in the complex or per binding partner.

Consider “MadL1 (isolated leader peptide of maddinglicin A)”, for which, in test [1], the Kd stood at 410 nM and the stoichiometry N (LP per MadB dimer) came out at 1. In test [2], “MadL1, isolated leader peptide of maddinglicin A (MadA), residues -23 to -1” returned a stoichiometry N of 1.21. In test [1], “MadL2 (leader peptide of MadA with the first five residues of the core peptide)” showed a dissociation constant (Kd) of 320 nM and a stoichiometry N (LP per MadB dimer) of 1. As to “MadL2, leader peptide of maddinglicin A with the first five residues of the core peptide, residues -23 to +5”, in test [2], the stoichiometry N was found to be 0.89.

“MadL2_VSVS, MadL2 with the lysines K-12 and K-10 of the VKVK motif changed to serine (peptide)” showed a stoichiometry N in test [2] of 1.12. In test [1], “MadL3 (leader peptide of MadA with the first ten residues of the core peptide)” displayed a Kd of 150 nM and a stoichiometry N (LP per MadB dimer) of 1. For “MadL3, leader peptide of maddinglicin A with the first ten residues of the core peptide, residues -23 to +10”, the stoichiometry N in test [2] is 0.97.

For the origin of these results see paper PMC12241602.
